Data on one substance can be found in US20040203067.

For this series, the target named is STAT-3 (endogenous, in 32Dcl3-derived cells) (UniProt P42227).
Chain of STAT-3 (endogenous, in 32Dcl3-derived cells) (P42227 2-770): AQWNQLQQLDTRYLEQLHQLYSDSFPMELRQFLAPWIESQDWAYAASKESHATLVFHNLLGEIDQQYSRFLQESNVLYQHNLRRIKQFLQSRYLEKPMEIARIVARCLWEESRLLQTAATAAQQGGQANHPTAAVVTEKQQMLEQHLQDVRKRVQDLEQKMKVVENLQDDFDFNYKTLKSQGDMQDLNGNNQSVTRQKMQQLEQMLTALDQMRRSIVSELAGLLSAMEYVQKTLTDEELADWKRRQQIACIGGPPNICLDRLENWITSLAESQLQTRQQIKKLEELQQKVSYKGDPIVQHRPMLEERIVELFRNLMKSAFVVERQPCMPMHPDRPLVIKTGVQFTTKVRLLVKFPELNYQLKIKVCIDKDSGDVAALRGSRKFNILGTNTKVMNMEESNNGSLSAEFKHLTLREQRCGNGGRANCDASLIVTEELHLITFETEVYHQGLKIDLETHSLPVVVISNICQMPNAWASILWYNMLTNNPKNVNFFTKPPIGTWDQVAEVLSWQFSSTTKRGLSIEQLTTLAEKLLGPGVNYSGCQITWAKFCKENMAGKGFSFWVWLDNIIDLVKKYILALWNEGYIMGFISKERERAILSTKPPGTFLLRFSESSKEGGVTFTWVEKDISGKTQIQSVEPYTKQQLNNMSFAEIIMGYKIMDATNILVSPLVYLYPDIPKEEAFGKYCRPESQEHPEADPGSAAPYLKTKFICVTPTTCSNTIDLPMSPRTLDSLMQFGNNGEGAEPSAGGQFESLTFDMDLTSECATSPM

For the substance “c-Src (endogenous, activated, in IL-3 stimulated 32Dcl3 cells)”, the “tyrosine phosphorylation of STAT-3 (4G10 Western blot of STAT-3 immunoprecipitates)” value was “phosphorylation of STAT-3 following IL-3 stimulation of 32Dcl3 cells is blocked by AMSrc”.
